This assay has as its target paclitaxel-stabilized microtubules. The assay is described as follows: co-sedimentation.

B1: MBP-Nsk1 (recombinant maltose-binding protein-Nsk1, wild type) (natural protein)
chain: MAYKLSLSAVEPLLIFPAAPFSTKKEKSTFQNNLISSDVFSSALKPLSPLKSLVADFSTHSNPSKDNQLISPPKINHREFLNEEKESDTQTRYLKQLINICNSPSKNHETSLSPSKSTIDNNERKLDNEIDNYKHDVKYSPYKGQGKTSNPSQGTTKCPGIFEEDNFFSVSPKRRKNLFEKYGKTDLGKPARVPSPKKSLSSTIKSPPSRVKLPTSILSKSPPLKVPNKNRSSTFSPLRTPTSSSKTFVIVDHSTPSPPSIRTKLEAFAPNSTFATQKRLRRLATLESSPALRSTLKSLQSKSSPVKLLKLKEEKAKIKNQLFKSEEEKDPVGKQKLPLESSLSPLDHSSAEKEMQKAPAKNKRRRTGSLETGLYPKESPTPSKKRSKRVLWSLKHIVSPGNREKHSLNSTPESIMKKDTKWPQNLAKNNINSEPNTPTKSNIDTGKAHSARAHKTRKNIQS
A word on the Kd: it is the constant that tells how readily two partners part at equilibrium. High values mean weaker binding, low ones tighter binding. B1 came in with a dissociation constant Kd of 0.23 µM. In other words, the sub-micromolar range.

The values above are taken from PMC3257533.
